Experimental findings from patent US20210054055A1 (UNIVERSITY OF VERMONT AND STATE AGRICULTURAL COLLEGE, published 2021) are described below.

Read-outs that look alike come from different tables or passages of the source.

The target of one experiment is H/PF/2013 (Zika virus). In words: cell-based or functional assay.
The next experiment deals with T1, MR766.
T1 envelope protein E: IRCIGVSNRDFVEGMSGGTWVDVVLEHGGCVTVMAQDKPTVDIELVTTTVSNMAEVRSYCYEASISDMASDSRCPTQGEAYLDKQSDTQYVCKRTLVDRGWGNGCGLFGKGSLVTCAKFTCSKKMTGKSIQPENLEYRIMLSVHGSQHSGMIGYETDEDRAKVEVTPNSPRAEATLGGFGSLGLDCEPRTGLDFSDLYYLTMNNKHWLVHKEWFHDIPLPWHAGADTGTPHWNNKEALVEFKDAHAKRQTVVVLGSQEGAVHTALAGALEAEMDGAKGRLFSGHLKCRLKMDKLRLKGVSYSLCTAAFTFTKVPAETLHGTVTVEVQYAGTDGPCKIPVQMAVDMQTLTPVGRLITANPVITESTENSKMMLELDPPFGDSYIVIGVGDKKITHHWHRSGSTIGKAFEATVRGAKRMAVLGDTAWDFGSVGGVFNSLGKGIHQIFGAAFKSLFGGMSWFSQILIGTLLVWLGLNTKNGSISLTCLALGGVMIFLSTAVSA
In words: cell-based or functional assay.

The next experiment has as its target Dakar (Zika virus). Kind of experiment: cell-based or functional assay.
The target in experiment [1] is ZVEDIII, recombinant ZIKV E domain III (Zika virus, UniProt A0A024B7W1 586-693). Kind of experiment: direct antigen coating ELISA.
Experiment [2] concerns the target T2, ZVEDI, recombinant ZIKV E domain I (Zika virus, UniProt A0A024B7W1 291-585). In words: direct antigen coating ELISA. (ELISA stands for enzyme-linked immunosorbent assay.)
The target in experiment [3] is T3, Zika virus (ZIKV) virions, envelope protein E (Zika virus, UniProt A0A024B7W1 291-794).
Experiment [4] deals with T4, ZIKV recombinant E (ZIKV E80), recombinantly expressed monomeric ectodomain of ZIKV E protein (Zika virus, UniProt A0A024B7W1 291-694).
In experiment [5] the target is T4, ZIKV recombinant E (ZIKV E80), …. This is another data set of the same source.
Experiment [6] has as its target T3, Zika virus (ZIKV) virions, envelope …. The source holds these as a separate data set.
Experiment [7] concerns the target T5, Dengue virus serotype 1 (DENV1) virions, envelope protein E (Dengue virus 1, UniProt P17763 281-775).
T5 construct: domain: envelope protein E
Kind of experiment: antigen capture ELISA.

Experiment [8] concerns the target T3, Zika virus (ZIKV) virions, envelope …. The source holds these as a separate data set.
The target is the same in experiment [9]. The source holds these as a separate data set.
The target in experiment [10] is T4, ZIKV recombinant E (ZIKV E80), …. This is another data set of the same source.
The target of experiment [11] is T3, Zika virus (ZIKV) virions, envelope …. This is another data set of the same source.
The target of experiment [12] is T4, ZIKV recombinant E (ZIKV E80), …. Kind of experiment: direct antigen coating ELISA, 50 ng recombinant antigen per well; target ZIKV E80.
Experiment [13] concerns the target ZIKV/2015/Paraiba, envelope protein E (Zika virus strain ZIKV/2015/Paraiba). Kind of experiment: cell-based or functional assay.
Experiment [14] concerns the target T2, ZVEDI, recombinant ZIKV E domain I. Kind of experiment: direct antigen coating ELISA, 50 ng recombinant antigen per well; target ZVEDI (domain I).

Chain of ZVEDIII, recombinant ZIKV E domain III (A0A024B7W1 586-693 limits assumed): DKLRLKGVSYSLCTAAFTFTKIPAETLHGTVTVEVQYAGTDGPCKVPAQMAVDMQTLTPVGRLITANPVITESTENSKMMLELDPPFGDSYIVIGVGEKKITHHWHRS
T5 sequence (P17763 281-775 limits assumed): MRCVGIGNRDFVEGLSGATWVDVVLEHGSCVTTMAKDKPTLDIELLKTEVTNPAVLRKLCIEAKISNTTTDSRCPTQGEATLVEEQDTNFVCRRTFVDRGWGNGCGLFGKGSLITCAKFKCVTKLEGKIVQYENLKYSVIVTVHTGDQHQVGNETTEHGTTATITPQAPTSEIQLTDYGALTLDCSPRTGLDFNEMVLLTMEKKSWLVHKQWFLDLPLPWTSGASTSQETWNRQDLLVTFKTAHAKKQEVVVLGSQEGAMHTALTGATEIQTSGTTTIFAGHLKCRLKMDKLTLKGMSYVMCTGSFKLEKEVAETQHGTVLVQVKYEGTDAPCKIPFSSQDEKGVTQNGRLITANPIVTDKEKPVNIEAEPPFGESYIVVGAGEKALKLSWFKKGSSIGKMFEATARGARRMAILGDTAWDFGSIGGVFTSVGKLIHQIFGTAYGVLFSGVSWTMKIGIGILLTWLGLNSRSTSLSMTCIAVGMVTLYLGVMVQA

B1: Anti-ZIKV clone DT168(A)-D1_G-9E (G9E) (antibody, V domains shown)
VH: EVQLVESGGGVVQPGRSLRLSCVASGFAFSNYHMHWVRQAPGKGLEWVAIIWDDGSDQYYADSVKGRFTISRDNSKNTLFLQMNRLRAEDTALYYCVGGSSAYNGDNGWREAASLDDWGQGTLVTVSS
VL: QSALTQPASVSGSPGQSITIFCSGSSNDVGGYNYVSWYQQYPGKVPKLLIYDVNSRPSGVSNRFSGSKSGNTASLTISGLQAEDEADYYCSSYTSRRTWVFGGGTIVTVL
notes: also called ZV2; G9E mAb
As a reminder, the EC50 (read off the curve) is the concentration at which the effect is half-maximal. In the case of B1, the “FRNT50 (focus reduction neutralization on Vero cells)” value turned out to be 4.7 ng/mL in the experiment with H/PF/2013, 2.3 ng/mL in the experiment with MR766 and 14.6 ng/mL in the experiment with Dakar. The binding result in experiment [1], in experiment [2] and in experiment [7] was “no binding” throughout. Moreover, the entries for the “IC50 (read off the curve)” value in experiment [3], in experiment [6] and in experiment [8] were around 0.05 µg/mL, around 0.05 µg/mL and around 0.4 µg/mL, respectively. The “EC50 (read off the curve)” value in [4] was around 0.3 µg/mL; in experiment [5] it was around 0.2 µg/mL; in experiment [9], around 0.03 µg/mL; in experiment [10], around 0.2 µg/mL; in experiment [11], around 0.03 µg/mL.

B2: Anti-ZIKV clone DT168(A)-D1_A-9E (A9E) (antibody, V domains shown)
VH: EVQLLESGGGLVQAGGSLRLSCAASGFTFDTYAMSWVRQPPGKGLEWVSAISTGGGSKYYADSVKGRLTISRDNSQNTLYLQMSSLRADDTAVYYCARSDFWRSGRYYYYMDVWGRGTTVTVSS
VL: QSALTQPASVSASPGQSITISCTGTHFDIVDYDYLSWYQQHPGNAPKLLIYGVSNRPSGVSSRFSGSKSGNTASLTISGLQAEDEGDYYCSSYSISSTLLVFGGGTKLSV
notes: also called ZV1; A9E mAb
The EC50 is the concentration giving half of the maximal effect. Turning to B2, the EC50 in experiment [12] amounted to 0.04 µg/mL; in experiment [14], 2.5 µg/mL. Moreover, in experiment [13], the “EC50, Vero-based neutralization assay against ZIKA/2015/Paraiba” value is 0.005 to 0.01 µg/mL. For the same molecule, the “FRNT50 (focus reduction neutralization on Vero cells)” value in the experiment with H/PF/2013 was 4.7 ng/mL; with MR766, 5.3 ng/mL; with Dakar, 21.7 ng/mL. Also, the binding result in experiment [1] and in [7] was “no binding” throughout. Moreover, the “IC50 (read off the curve)” value is around 0.07 µg/mL in [3], around 0.06 µg/mL in experiment [6] and around 0.008 µg/mL in experiment [8]. The “EC50 (read off the curve)” value in experiment [9] and in [11] was around 0.02 µg/mL in each case.
